# Laboratory results: paper PMC2199960
# How the values were obtained:
# [1] = molecular target: collagen I from rat tail (rat) (UniProt P02454); assay: co-sedimentation
# [2] = molecular target: NC3 domain of the small collagen XII subunit (190 kD) (chick); assay: two-dimensional SDS-PAGE
# [3] = molecular target: collagen XII, small variant (small subunit, 220 kD) (chick); assay: electron microscopy + nonreducing SDS-PAGE
# [4] = molecular target: collagen XII, small variant (small subunit, 220 kD) (chick); assay: electron microscopy
# Chain of collagen I from rat tail (rat) (P02454 152-1207, chain 1 of 2): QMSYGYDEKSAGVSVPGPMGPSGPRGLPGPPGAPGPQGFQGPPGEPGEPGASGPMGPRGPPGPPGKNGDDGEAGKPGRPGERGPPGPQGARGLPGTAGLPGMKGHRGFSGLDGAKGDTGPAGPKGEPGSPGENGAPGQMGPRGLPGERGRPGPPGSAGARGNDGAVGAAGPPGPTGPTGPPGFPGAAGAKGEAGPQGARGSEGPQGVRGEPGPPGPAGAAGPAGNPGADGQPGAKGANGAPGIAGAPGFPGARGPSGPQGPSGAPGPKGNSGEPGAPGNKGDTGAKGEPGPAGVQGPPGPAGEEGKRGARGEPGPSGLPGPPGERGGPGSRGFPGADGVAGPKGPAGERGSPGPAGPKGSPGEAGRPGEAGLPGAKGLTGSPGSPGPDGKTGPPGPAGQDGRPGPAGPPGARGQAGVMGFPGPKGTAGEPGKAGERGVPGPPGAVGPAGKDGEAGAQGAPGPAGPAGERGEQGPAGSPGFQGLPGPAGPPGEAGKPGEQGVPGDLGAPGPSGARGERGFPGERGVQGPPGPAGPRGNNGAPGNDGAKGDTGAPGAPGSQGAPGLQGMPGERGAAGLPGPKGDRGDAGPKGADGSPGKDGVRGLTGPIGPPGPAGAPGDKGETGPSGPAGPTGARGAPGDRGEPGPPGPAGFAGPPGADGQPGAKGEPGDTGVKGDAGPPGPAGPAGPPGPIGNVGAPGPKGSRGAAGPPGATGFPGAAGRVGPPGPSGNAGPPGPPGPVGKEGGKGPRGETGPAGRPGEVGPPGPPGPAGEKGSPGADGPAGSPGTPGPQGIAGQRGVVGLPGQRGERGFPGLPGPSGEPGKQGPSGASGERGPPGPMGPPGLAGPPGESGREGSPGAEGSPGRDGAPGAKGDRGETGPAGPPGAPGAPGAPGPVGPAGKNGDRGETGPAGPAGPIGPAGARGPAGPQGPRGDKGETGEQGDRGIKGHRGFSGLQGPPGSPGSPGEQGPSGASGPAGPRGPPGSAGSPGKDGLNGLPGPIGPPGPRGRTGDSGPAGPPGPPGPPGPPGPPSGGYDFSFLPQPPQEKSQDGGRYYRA
# Chain of collagen I from rat tail (rat) (P02466 86-1125, chain 2 of 2, further chain): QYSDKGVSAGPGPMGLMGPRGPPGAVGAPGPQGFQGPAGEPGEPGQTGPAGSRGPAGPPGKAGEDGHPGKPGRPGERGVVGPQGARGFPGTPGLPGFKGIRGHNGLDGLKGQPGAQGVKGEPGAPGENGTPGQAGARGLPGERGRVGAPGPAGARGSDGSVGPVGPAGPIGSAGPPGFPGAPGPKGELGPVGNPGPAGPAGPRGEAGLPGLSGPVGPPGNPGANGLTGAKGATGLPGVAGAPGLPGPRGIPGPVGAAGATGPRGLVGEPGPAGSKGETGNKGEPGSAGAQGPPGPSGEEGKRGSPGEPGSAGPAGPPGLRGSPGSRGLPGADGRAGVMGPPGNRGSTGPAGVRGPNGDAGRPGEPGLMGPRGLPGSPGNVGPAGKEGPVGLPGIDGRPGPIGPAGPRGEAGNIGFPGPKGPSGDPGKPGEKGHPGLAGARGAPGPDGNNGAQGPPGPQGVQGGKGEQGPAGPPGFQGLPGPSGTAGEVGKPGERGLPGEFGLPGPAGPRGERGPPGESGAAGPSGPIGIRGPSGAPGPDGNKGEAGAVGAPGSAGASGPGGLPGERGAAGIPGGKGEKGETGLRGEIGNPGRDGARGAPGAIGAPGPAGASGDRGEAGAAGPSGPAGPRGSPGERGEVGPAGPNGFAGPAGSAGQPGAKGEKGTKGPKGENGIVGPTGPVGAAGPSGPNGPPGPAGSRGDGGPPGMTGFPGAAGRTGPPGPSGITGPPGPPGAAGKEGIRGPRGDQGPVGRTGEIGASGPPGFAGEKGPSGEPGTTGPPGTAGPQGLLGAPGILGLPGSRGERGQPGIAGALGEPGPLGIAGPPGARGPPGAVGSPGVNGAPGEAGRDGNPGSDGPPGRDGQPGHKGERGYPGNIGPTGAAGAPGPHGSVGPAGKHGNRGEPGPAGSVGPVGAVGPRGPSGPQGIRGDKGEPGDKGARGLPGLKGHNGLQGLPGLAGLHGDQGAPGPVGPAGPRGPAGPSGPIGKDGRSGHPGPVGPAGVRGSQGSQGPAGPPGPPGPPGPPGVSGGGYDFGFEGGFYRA
substance,measurement,setting,value
"NC3 domain of the large collagen XII subunit (290 kD), collagenase-treated collagen XII (domain or fragment)","percent of truncated collagen XII in the pellet (90 mM NaCl, 30 mM phosphate)",[1],20%
NC3 domain of the small collagen XII subunit (190 kD) (domain or fragment),stoichiometry N,[2],3
"collagen XII, small variant (small subunit, 220 kD) (natural protein)",stoichiometry N,[3],3
same,stoichiometry N,[4],3
